Earlier results on two substances are cited in paper PMC4484741.

pKd: −log10 of the molar value. Where two headings read alike, the source gives them in different places.

Series [1] concerns the target GLP-1 receptor (UniProt P43220).
For series [2] the target is unchanged. The source holds these as a separate data set.

Sequence of GLP-1 receptor (P43220 24-463): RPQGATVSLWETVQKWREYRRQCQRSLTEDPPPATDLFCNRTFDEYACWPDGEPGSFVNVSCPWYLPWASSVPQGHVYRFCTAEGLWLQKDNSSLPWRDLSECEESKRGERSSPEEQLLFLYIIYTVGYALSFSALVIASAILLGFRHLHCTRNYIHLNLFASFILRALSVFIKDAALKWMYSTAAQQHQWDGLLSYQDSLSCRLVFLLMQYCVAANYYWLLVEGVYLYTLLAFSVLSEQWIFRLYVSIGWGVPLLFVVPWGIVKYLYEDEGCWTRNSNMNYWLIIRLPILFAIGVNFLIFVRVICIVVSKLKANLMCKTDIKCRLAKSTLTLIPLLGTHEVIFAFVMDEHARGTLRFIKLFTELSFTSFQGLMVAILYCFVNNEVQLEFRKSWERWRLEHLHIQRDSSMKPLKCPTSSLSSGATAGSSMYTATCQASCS
Sequence of Exendin-4 (P26349 48-86): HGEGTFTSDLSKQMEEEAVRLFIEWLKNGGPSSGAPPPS
Sequence of Exendin (9-39) 9-39 (P26349 56-86): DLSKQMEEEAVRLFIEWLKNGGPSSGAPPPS

Regarding “Exendin (9-39) 9-39 (from UniProt P26349)”, in the series with GLP-1 receptor [1], the negative logarithm of the Kd (pKd) was 8.52.

Exendin-4 (from UniProt P26349): the pKd with GLP-1 receptor [2] was 9.85.

The term pKd denotes the Kd on a negative log10 scale, so that one unit is a factor of ten.
